Measurements as given in patent US20240301067A1 (WUXI BIOLOGICS IRELAND, published 2024).
Numbering of substitutions follows the chain as printed. Numbers in names are those of the source. Blank lines part the entries; values can stand above or below the binder they belong to.

Assays:
Mouse PD-1 on 293F cells [1] = target: T1, Mouse PD-1 on 293F cells (mouse, UniProt Q02242 25-288); test: FACS on 293F.mPro1.B4 cells
T1 construct: whole, on cells; also called 293F.mPro1.B4; WBP305.293F.mPro1.B4
T1 sequence (looked up): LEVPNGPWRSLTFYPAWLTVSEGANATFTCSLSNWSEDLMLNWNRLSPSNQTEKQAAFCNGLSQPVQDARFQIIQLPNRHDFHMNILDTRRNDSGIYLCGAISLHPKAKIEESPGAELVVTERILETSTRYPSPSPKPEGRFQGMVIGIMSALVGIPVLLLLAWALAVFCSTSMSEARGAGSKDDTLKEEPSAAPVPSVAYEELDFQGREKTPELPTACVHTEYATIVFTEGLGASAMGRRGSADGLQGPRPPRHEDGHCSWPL
Method: The cells 293F.mPro1.B4 (2×10⁵ cells/well) were incubated with various concentrations of anti-PD-1 antibodies (3-fold serially diluted from 133.3 nM to 0.008 nM) at 4° C. for 1 hour. After washing with 1×PBS/1% BSA, the secondary antibody PE-labeled goat anti-human IgG was applied and incubated with cells at 4° C. for 1 hour. Human IgG4 isotype antibody was used as negative control. The cells were then washed and re-suspended in 1×PBS/1% BSA. MFI of the cells was measured by a flow cytometer and analyzed by FlowJo (version 7.6.1).

[2] = target: T2, Human BTLA extracellular domain, His (human, UniProt Q7Z6A9 31-157); test: ELISA, coated antigen 1 ug/mL, antibody 100 nM, HRP goat anti-human IgG
T2 construct: extracellular domain; Bought; also called hBTLA.ECD.His; not shown: His tag
T2 sequence (looked up): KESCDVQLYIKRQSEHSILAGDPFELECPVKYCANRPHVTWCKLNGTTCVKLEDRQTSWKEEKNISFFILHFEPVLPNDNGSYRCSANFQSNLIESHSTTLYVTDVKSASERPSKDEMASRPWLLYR
Method: (§1) Plates were pre-coated with 1 μg/mL, 100 μL per well of hPD-1.ECD.mFc, hCD28.ECD.mFc, hCTLA-4.ECD.His, hICOS.ECD.mFc or hBTLA.ECD.His at 4° C. overnight. After 1-hour blocking using 200 μL of 1×PBS/2% BSA, testing antibodies were added to the plates at a concentration of 100 nM. The plates were incubated at ambient temperature for 1 hour. The binding of the antibodies to the immobilized proteins was detected by HRP-labeled goat anti-human IgG antibody. The color was developed by dispensing 100 μL of TMB substrate, and then stopped by 100 μL of 2N HCl. The absorbance was read at 450 nm and 540 nm using a microplate spectrophotometer.

[3] = target: T3, Human CTLA-4 extracellular domain, His tag (human, UniProt P16410 36-161); test: as above
T3 construct: extracellular domain; also called hCTLA-4.ECD.His; not shown: 6xhis tag at C-terminus
T3 sequence (looked up): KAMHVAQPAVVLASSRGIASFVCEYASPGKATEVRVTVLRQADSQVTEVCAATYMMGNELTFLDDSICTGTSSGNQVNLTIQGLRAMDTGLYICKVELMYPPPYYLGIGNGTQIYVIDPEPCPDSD
Method: as §1

[4] = target: T4, Human CD28 extracellular domain, mFc tag (human, UniProt P10747 19-152); test: as above
T4 construct: extracellular domain; also called hCD28.ECD.mFc; not shown: mouse Fc tag at C-terminus
Method: as §1

[5] = target: T5, Human PD-1 on CHO-S cells (human, UniProt Q15116 25-288); test: FACS competition on CHO-S.hPro1.C6 cells; competitor hProL1.ECD.mFc 5 µg/mL
T5 construct: whole, on cells; also called CHO-S.hPro1.C6; WBP305.CHO-S.hPro1.C6
Method: The human PD-1 transfected CHO-S.hPro1.C6 cells were transferred into 96-well U-bottom plates at a density of 2×10⁵ cells/well. Various concentrations of antibodies (4-fold serially diluted from 133.3 nM to 0.008 nM) and constant concentration of mouse Fc tagged PD-L1 ECD protein (hProL1.ECD.mFc) (5 μg/mL) were pre-mixed and incubated with cells at 4° C. for 1 hour. After washing with 1×PBS/1% BSA, the secondary antibody PE-labeled goat anti-mouse IgG was applied and incubated with cells at 4° C. for 1 hour. The cells were then washed and resuspended in 1×PBS/1% BSA. MFI of the cells was measured by a flow cytometer and analyzed by FlowJo (version 7.6.1).

[6] = target: T5, Human PD-1 on CHO-S cells; test: FACS on CHO-S.hPro1.C6 cells
Method: The cells CHO-S.hPro1.C6 (2×10⁵ cells/well) were incubated with various concentrations of anti-PD-1 antibodies (4-fold serially diluted from 133.3 nM to 0.008 nM) at 4° C. for 1 hour. After washing with 1×PBS/1% BSA, the secondary antibody PE-labeled goat anti-human IgG was applied and incubated with cells at 4° C. for 1 hour. Anti-human PD-1 antibodies BMK1 and BMK3 were used as positive control. Human IgG4 isotype antibody was used as negative control. The cells were then washed and resuspended in 1×PBS/1% BSA. MFI of the cells was measured by a flow cytometer (BD) and analyzed by FlowJo (version 7.6.1).

Mouse PD-1 on 293F cells [7] = target: T1, Mouse PD-1 on 293F cells; test: FACS competition on 293F.mPro1.B4 cells; competitor mProL1.ECD.mFc 5 µg/mL
Method: The mouse PD-1 transfected 293F.mPro1.B4 cells were transferred into 96-well U-bottom plates at a density of 2×10⁵ cells/well. Various concentrations of anti-PD-1 antibodies (3-fold serially diluted from 1334 nM to 0.07 nM) and constant concentration of mouse Fc tagged mouse PD-L1 ECD protein (mProL1.ECD.mFc) (5 μg/mL) were pre-mixed and incubated with cells at 4° C. for 1 hour. After washing with 1×PBS/1% BSA, the secondary antibody PE-labeled goat anti-mouse IgG was applied and incubated with cells at 4° C. for 1 hour. The cells were then washed and resuspended in 1×PBS/1% BSA. MFI of the cells was measured by a flow cytometer and analyzed by FlowJo (version 7.6.1).

T5 sequence (Q15116 25-288): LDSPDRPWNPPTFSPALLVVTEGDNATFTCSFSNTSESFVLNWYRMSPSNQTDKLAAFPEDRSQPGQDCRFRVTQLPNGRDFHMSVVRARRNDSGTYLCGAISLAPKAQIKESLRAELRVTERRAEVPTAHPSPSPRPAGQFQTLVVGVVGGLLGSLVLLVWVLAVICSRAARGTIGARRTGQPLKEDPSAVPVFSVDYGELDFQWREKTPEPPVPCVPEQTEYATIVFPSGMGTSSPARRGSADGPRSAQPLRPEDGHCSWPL
T4 sequence (P10747 19-152): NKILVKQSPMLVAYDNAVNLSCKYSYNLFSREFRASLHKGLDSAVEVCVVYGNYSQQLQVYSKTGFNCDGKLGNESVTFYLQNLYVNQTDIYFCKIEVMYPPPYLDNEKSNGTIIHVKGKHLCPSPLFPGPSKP

- EC50 (Mouse PD-1 on 293F cells [1]): 4.77 nM
- binding result [2]: no binding (tested: 100 nM)
- binding result [3]: no binding (tested: 100 nM)
- binding result [4]: no binding (tested: 100 nM)
- IC50 [5]: 1 nM
- EC50 [6]: 1.87 nM
- IC50 (Mouse PD-1 on 293F cells [7]): 22.1 nM
B1: W3056-AP17R1-2H2-FC(IgG4.SP) (Fc fusion)
chain: QVQLVESGGGLVQPGGSLRLSCAASDSIDSLVNMGWYRQAPGKQRELVALIANYITHYADFVKGRFTISRDAAKNTVNLQMSSLKPEDTAVYYCYARNIIVDYWGQGTQVTVSS
notes: VHH fused to Fc of human IgG4 S228P; also called W3056 lead parental antibody (VHH-Fc(hIgG4) fusion); not shown: Fc of human IgG4 (hIgG4.S228P)

- EC50 (Mouse PD-1 on 293F cells [1]): 4.26 nM
- binding result [2]: no binding (tested: 100 nM)
- binding result [3]: no binding (tested: 100 nM)
- binding result [4]: no binding (tested: 100 nM)
- IC50 [5]: 0.655 nM
- EC50 [6]: 0.612 nM
- IC50 (Mouse PD-1 on 293F cells [7]): 10.2 nM
B2: W3056-AP17R1-2H2-Z1-R1-14A1-FC(IgG4.SP) (Fc fusion)
chain: B1 chain with L11V, N53T, A72N, A73S, V77L, N78Y, S82N, K85R, P86A, Q109L
notes: also called W3056 lead antibody (VHH-Fc(hIgG4) fusion); not shown: Fc of human IgG4 (hIgG4.S228P)
